Reference: US20240192215A1 (E AND S HEALTHCARE, published 2024)

How the values were obtained:
Experiment in all cases: peptide microarray, anti-mouse IgG DyLight 650, MMC2 heatmap (Example 17)
Peptide_078 = molecular target: T1, Peptide_078
T1 peptide: DCQDVASECEVKCMP
Method: (§1) 5, 1, 0.2, 0.04, 0.008 and 0.0016 μg/mL serial dilutions were incubated on a single multi-well microarray slide at 30° C. for 1 hour. The slide includes 21 individual mini-arrays (one mini-array per sample dilution).
(§2) DyLight 650 was used as a label. False-positive binding to a peptide was evaluated by performing one additional control incubation in which only a secondary antibody was applied on the same microarray slide. Before performing each step, the microarrays were washed with a washing buffer.
(§3) To visualize the obtained results and compare binding regions across individual cultures, as shown in FIGS. 21A to 21D, heatmap diagrams were calculated. In FIGS. 21A to 21D, the fluorescence intensity is expressed in a color-coded manner, white indicates no binding, and red indicates strong binding. For all evaluations, the MMC2-value of the average pixel fluorescence for each peptide was calculated.

Peptide_007 = molecular target: T2, Peptide_007
T2 peptide: VHSQHHHHHHHHVKQ
Method: as §1, §2, §3

Peptide_032 = molecular target: T3, Peptide_032
T3 peptide: LDAAGDKLVVVDFSA
Method: as §1, §2, §3

Peptide_027 = molecular target: T4, Peptide_027
T4 peptide: AFQEALDAAGDKLVV
Method: as §1, §2, §3

Peptide_040 = molecular target: T5, Peptide_040
T5 peptide: VVVDFSATWCGPCKM
Method: as §1, §2, §3

Peptide_016 = molecular target: T6, Peptide_016
T6 peptide: HHHVKQIESKTAFQE
Method: as §1, §2, §3

Peptide_026 = molecular target: T7, Peptide_026
T7 peptide: TAFQEALDAAGDKLV
Method: as §1, §2, §3

Peptide_073 = molecular target: T8, Peptide_073
T8 construct: also called EVDVDDCQDVASECE
T8 peptide: EVDVDDCQDVASECE
Method: as §1, §2, §3

Peptide_104 = molecular target: T9, Peptide_104
T9 peptide: GEFSGANKEKLEATI
Method: as §1, §2, §3

Peptide_033 = molecular target: T10, Peptide_033
T10 peptide: DAAGDKLVVVDFSAT
Method: as §1, §2, §3

Peptide_069 = molecular target: T11, Peptide_069
T11 peptide: VIFLEVDVDDCQDVA
Method: as §1, §2, §3

Peptide_001 = molecular target: T12, Peptide_001
T12 peptide: VATAADVHSQHHHHH
Method: as §1, §2, §3

Peptide_004 = molecular target: T13, Peptide_004 (human)
T13 construct: 15-mer on microarray; not native form, recombinant insert region
T13 peptide: AADVHSQHHHHHHHH
Method: as §1, §2, §3

Peptide_058 = molecular target: T14, Peptide_058
T14 peptide: FFHSLSEKYSNVIFL
Method: as §1, §2, §3

Peptide_083 = molecular target: T15, Peptide_083
T15 peptide: ASECEVKCMPTFQFF
Method: as §1, §2, §3

Peptide_067 = molecular target: T16, Peptide_067
T16 peptide: SNVIFLEVDVDDCQD
Method: as §1, §2, §3

Peptide_081 = molecular target: T17, Peptide_081
T17 peptide: DVASECEVKCMPTFQ
Method: as §1, §2, §3

Peptide_029 = molecular target: T18, Peptide_029
T18 peptide: QEALDAAGDKLVVVD
Method: as §1, §2, §3

Peptide_017 = molecular target: T19, Peptide_017
T19 peptide: HHVKQIESKTAFQEA
Method: as §1, §2, §3

Peptide_090 = molecular target: T20, Peptide_090
T20 peptide: CMPTFQFFKKGQKVG
Method: as §1, §2, §3

Peptide_100 = molecular target: T21, Peptide_100
T21 peptide: GQKVGEFSGANKEKL
Method: as §1, §2, §3

Peptide_038 = molecular target: T22, Peptide_038
T22 peptide: KLVVVDFSATWCGPC
Method: as §1, §2, §3

Peptide_041 = molecular target: T23, Peptide_041
T23 peptide: VVDFSATWCGPCKMI
Method: as §1, §2, §3

Peptide_037 = molecular target: T24, Peptide_037
T24 peptide: DKLVVVDFSATWCGP
Method: as §1, §2, §3

Peptide_066 = molecular target: T25, Peptide_066
T25 peptide: YSNVIFLEVDVDDCQ
Method: as §1, §2, §3

Peptide_098 = molecular target: T26, Peptide_098
T26 peptide: KKGQKVGEFSGANKE
Method: as §1, §2, §3

Peptide_087 = molecular target: T27, Peptide_087
T27 peptide: EVKCMPTFQFFKKGQ
Method: as §1, §2, §3

Peptide_003 = molecular target: T28, Peptide_003
T28 peptide: TAADVHSQHHHHHHH
Method: as §1, §2, §3

B1: monoclonal antibody B264 (antibody, mouse IgG1, kappa, V domains shown)
VH: QVQLQQSGAELARPGASVKMSCKASGYTFTSYTMHWVKQRPGQGLEWIGYINPTSDYTNYNQKFKDKATLTADKSSSTAYMQLSSLTSEDSAVYFCASEGGFLYYFDYWGQGTTLTVSS
VL: DVLMTQTPLSLPVSLGDQASISCRSSQSIVHSNGNTYLEWYLQKPGQSPKLLIYKVSNRFSGVPDRFSGSGSGTDFTLKISRVEAEDLGVYYCFQGSHVPYTFGGGTKLEIKR
notes: also called AB264; B264 (Trx1-mIgG1)
B1: no binding (tested: 5 ug/mL) (Peptide_078); no binding (tested: 5 ug/mL) (Peptide_007); no binding (tested: 5 ug/mL) (Peptide_032). B1: no binding (tested: 5 ug/mL) (Peptide_027); no binding (tested: 5 ug/mL) (Peptide_040); binds (Peptide_016). B1: no binding (tested: 5 ug/mL) (Peptide_026); no binding (tested: 5 ug/mL) (Peptide_073); no binding (tested: 5 ug/mL) (Peptide_104). B1: no binding (tested: 5 ug/mL) (Peptide_033); no binding (tested: 5 ug/mL) (Peptide_069); no binding (tested: 5 ug/mL) (Peptide_001). B1: no binding (tested: 5 ug/mL) (Peptide_004); no binding (tested: 5 ug/mL) (Peptide_058); no binding (tested: 5 ug/mL) (Peptide_083). B1: no binding (tested: 5 ug/mL) (Peptide_067); no binding (tested: 5 ug/mL) (Peptide_081); no binding (tested: 5 ug/mL) (Peptide_029). B1: binds (Peptide_017); no binding (tested: 5 ug/mL) (Peptide_090); no binding (tested: 5 ug/mL) (Peptide_100). B1: binds (Peptide_038); no binding (tested: 5 ug/mL) (Peptide_041); no binding (tested: 5 ug/mL) (Peptide_037). B1: no binding (tested: 5 ug/mL) (Peptide_066); no binding (tested: 5 ug/mL) (Peptide_098); no binding (tested: 5 ug/mL) (Peptide_087). B1: no binding (tested: 5 ug/mL) (Peptide_003).
